The text below walks through data of publication PMC12255069 (Journal of Biological Engineering, 2025).

Common to all, as to conditions: both partners purified
Test [1] deals with T1, ICOS-L wild-type-His (UniProt O75144 19-256).
T1 construct: ICOS ligand (ICOS-L, B7-H2, CD275), ectodomain D1-T238; plasmid pMAZ-ICOS-L-wild-type-His; also called wild-type ICOS-L; B7-H2; source: Expi293F, transient transfection, purified (Ni-NTA agarose, SEC)
T1 sequence (looked up): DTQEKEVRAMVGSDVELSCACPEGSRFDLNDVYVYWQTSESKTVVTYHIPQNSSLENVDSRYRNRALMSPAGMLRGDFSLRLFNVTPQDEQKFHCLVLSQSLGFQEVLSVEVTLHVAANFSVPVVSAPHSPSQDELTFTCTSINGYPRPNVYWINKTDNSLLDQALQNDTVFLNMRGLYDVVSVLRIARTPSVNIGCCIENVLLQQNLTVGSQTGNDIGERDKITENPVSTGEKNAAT
Put plainly: BLI; Octet R8; hICOS-Fc (5 µg/mL) immobilised on a Protein A biosensor; serial dilutions of ICOS-L variants, 10 min association, 10 min dissociation, 1× PBS pH 7.4. Background: Biolayer interferometry detects binding as a change in optical thickness at a sensor tip.

The target in test [2] is T2, ICOS-L-P (Q51P)-His (UniProt O75144 19-256, Q51P).
T2 construct: plasmid pMAZ-ICOS-L-P (Q51P)-His; source: Expi293F, transient transfection, purified (Ni-NTA agarose, SEC)
T2 sequence (looked up): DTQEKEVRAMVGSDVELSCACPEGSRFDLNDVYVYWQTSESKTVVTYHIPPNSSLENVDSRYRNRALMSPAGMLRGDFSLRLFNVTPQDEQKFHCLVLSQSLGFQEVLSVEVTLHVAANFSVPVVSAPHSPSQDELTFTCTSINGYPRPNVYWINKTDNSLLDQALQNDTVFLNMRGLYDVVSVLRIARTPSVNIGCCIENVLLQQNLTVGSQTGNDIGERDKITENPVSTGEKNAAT
Described as above.

Test [3] addresses T3, ICOS-L Y8 (Q51P, N57H)-His (UniProt O75144 19-256, Q51P | N57H).
T3 construct: plasmid pMAZ-ICOS-L-Y8(Q51P, N57H)-His; also called Y8 variant; source: Expi293F, transient transfection, purified (Ni-NTA agarose, SEC)
T3 sequence (looked up): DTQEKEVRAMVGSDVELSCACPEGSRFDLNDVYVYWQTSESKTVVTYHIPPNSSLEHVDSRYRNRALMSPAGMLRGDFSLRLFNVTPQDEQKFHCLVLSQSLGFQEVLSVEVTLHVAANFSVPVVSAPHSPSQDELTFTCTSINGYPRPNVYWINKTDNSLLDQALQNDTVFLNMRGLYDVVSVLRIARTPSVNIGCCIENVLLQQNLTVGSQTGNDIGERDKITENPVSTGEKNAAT
The test is described as above.

Test [4] has as its target T4, ICOS-L-H (N57H)-His (UniProt O75144 19-256, N57H).
T4 construct: plasmid pMAZ-ICOS-L-H(N57H)-His; source: Expi293F, transient transfection, purified (Ni-NTA agarose, SEC)
T4 sequence (looked up): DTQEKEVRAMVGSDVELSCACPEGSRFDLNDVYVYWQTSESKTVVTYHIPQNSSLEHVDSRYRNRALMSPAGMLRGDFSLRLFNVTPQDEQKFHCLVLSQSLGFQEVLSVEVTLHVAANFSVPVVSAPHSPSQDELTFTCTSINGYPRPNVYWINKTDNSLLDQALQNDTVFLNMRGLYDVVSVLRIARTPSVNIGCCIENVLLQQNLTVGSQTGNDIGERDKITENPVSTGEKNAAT
The description is as above.

For test [5], the target named is T3, ICOS-L Y8 (Q51P, N57H)-His. Put plainly: ELISA; ICOS-Fc (hICOS-Fc or mICOS-Fc) coated at 4 µg/mL in 0.05 M Na2CO3 pH 9.6; serially diluted His-tagged ICOS-L variants, detected with mouse anti-His-HRP. Background: ELISA stands for enzyme-linked immunosorbent assay.

Usually Kd stands for the constant that tells how readily two partners part at equilibrium. The low end stands for a tighter complex, the high end for a looser complex. A word on the koff: it is the first-order rate constant of dissociation. For orientation: kon means a measure of how fast the partners come together. Read a low kon as slower complex formation.

B1: hICOS-Fc (Fc fusion, human, UniProt Q9Y6W8 21-140, looked up)
chain: EINGSANYEMFIFHNGGVQILCKYPDIVQQFKMQLLKGGQILCDLTKTKGSGNTVSIKSLKFCHSQLSNNSVSFFLYNLDHSHANYYFCNLSIFDPPPFKVTLTGGYLHIYESQLCCQLK
notes: human Inducible T-cell Co-Stimulator (ICOS), extracellular domain E21-K140; plasmid pMAZ-hICOS-Fc; also called hICOS-hFc; human ICOS ectodomain fused to human Fc; source: Expi293F, transient transfection, purified (Protein A resin)
For the molecule B1, the dissociation constant (Kd) in test [1] came out at 113 nM; in test [2] it was 4.75 nM; in test [3] it was 1.19 nM; in test [4], 23.3 nM. The koff amounted to 0.0337 s⁻¹ in test [1], 0.000961 s⁻¹ in test [2], 0.000179 s⁻¹ in test [3] and 0.00567 s⁻¹ in test [4]. Besides, the kon in test [1] is 298000 M⁻¹ s⁻¹; in test [2], 202000 M⁻¹ s⁻¹; in test [3], 150000 M⁻¹ s⁻¹; in test [4], 244000 M⁻¹ s⁻¹.

B2: mouse ICOS (E21-K141)-hFc (Fc fusion, UniProt Q9WVS0 21-141, looked up)
chain: EINGSADHRMFSFHNGGVQISCKYPETVQQLKMRLFREREVLCELTKTKGSGNAVSIKNPMLCLYHLSNNSVSFFLNNPDSSQGSYYFCSLSIFDPPPFQERNLSGGYLHIYESQLCCQLK
notes: mouse ICOS, E21-K141; Plasmid pMAZ-mICOS-Fc; also called mICOS-Fc; source: Expi293F, transient transfection, purified (Protein A resin)
Take B2: the binding result in test [5] is “binds”.
